Reference: article PMC10148081

Target: Leishmania tarentolae propionyl-CoA carboxylase (LtPCC) β-subunit (Leishmania tarentolae (endogenous in L. tarentolae cells))
Assay: cryo-EM structure; endogenous LtPCC complexes from streptavidin pull-down, in 20 mM Tris-HCl pH 7.5, 60 mM KCl, 5 mM MgCl2, 1 mM DTT, 5 mM OG; α6β6 map with D3 symmetry at 3.2 Å, α5β6 (8.6 Å) and α4β6 (10.3 Å) maps with C1 symmetry

stoichiometry N: 6
Substance: Leishmania tarentolae propionyl-CoA carboxylase (LtPCC) β-subunit (natural protein)
